# Where two headings read alike, the source gives them in different places.
# T1: human GITR-CHO (human, UniProt Q9Y5U5)
# T1 construct: expressed on the surface of CHO cells, construct not described; also called human GITR expressed on the surface of CHO cells
# T1 sequence (looked up): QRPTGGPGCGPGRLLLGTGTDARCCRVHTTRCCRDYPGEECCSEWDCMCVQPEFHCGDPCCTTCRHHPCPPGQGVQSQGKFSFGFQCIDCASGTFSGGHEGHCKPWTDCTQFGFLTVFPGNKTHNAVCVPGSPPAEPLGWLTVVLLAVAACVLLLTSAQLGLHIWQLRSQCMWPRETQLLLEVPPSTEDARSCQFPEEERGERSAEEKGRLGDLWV
# T2: GITR expressed on CHO cells (Homo sapiens (Human), UniProt Q9Y5U5 26-241)
# T2 construct: also called glucocorticoid-induced TNFR-related protein; TNFRSF18
# T2 sequence: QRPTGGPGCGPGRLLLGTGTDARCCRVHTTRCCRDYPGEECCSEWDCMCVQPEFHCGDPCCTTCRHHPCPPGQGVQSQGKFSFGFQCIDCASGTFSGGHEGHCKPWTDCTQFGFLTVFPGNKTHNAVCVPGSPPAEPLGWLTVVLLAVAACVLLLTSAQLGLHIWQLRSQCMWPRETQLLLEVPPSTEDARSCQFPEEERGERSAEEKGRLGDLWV
# B1: hzC06v3.3 (VHH)
# VHH: EVQLLESGGGEVQPGGSLRLSCAASGSVFSIDAMGWYRQAPGKQRELVAVLSGISSAKYAESVKGRFTISRDSAKNAVYLQMDGLKPEDTAVYYCYADVSTGWGRDAHGYWGQGTLVTV
# B2: hzC06v3.6 (VHH)
# VHH: EVQLLESGGGEVQPGGSLRLSCAASGSVFSIDAMGWYRQAPGKQRELVAVLSGISSAKYAESVKGRFTISRASAPNTVYLQMSSLRAEDTAVYYCYADVSTGWGRDAHGYWGQGTLVTV
# B3: hzC06v3.4 (VHH)
# VHH: EVQLLESGGGEVQPGGSLRLSCAASGSVFSIDAMGWYRQAPGKQRELVAVLSGISSAKYAESVKGRFTISRDNAKNTVYLQMSSLRAEDTAVYYCYADVSTGWGRDAHGYWGQGTLVTV
# B4: F05 (VHH, not shown: a dimerising Fc or GST; small tags and cut ends)
# VHH: QVQLVQSGGGLVQAGGSLRLSCTASGSIFSINHMAWYRQAPGKQREMVAHITGGASTKYADSVKGRFTISRDSALNTVSLRMNSLKPEDTAVYYCNAEVNEGWNADYYDVWGQGTQVTVSS
# B5: hzCC04v5 (VHH)
# VHH: EVQLLESGGGEVQPGGSLRLSCAASGFTFSTHGMDWFRQAPGKDLEWVSAIQSGGSWTSYASSVKGRFTISRDNAKNTLYLQMSSLRAEDTAVYWCQNRVTRGQGTLVTV
# notes: also called hzC04v5
# B6: hzCC04v5.3 (VHH)
# VHH: EVQLLESGGGEVQPGGSLRLSCAASGFTFSTHGMDWFRQAPGKDLEWVSAIQSGGSWTSYASSVKGRFTISRDNAKNTLYLEMSSLRAEDTAVYWCQNRVTRGQGTLVTV
# notes: sheet prints hzCC04, text hzC04; also called hzC04v5.3
# B7: hzCC04v1 (VHH)
# VHH: EVQLLESGGGEVQPGGSLRLSCAASGFTFSTHGMDWFRQAPGKDLEWVSAINNGGSWTSYASSVKGRFTISRDNAKNTLYLQMSSLRAEDTAVYWCQNRVTRGQGTLVTV
# notes: sheet prints hzCC04v1; also called hzC04v1
# B8: hzCC04v5.1 (VHH)
# VHH: EVQLLESGGGEVQPGGSLRLSCAASGFTFSTHGMDWFRQAPGKDLEWVSAIQSGGSWTSYASSVKGRFTISRDNAKNTLYLEMNNLKPEDTAVYWCQNRVTRGQGTLVTV
# notes: sheet prints hzCC04, text hzC04; also called hzC04v5.1
# B9: hzCC04v1.2.1 (VHH)
# VHH: EVQLLESGGGEVQPGGSLRLSCAASGFTFSTHGMDWFRQAPGKDLEWVSAINQGGSWTSYASSVKGRFTISRDNAKNTLYLQMSSLRAEDTAVYYCQNRVTRGQGTLVTV
# notes: also called hzC04v1.2.1
# B10: hzCC04v5.4 (VHH)
# VHH: EVQLLESGGGEVQPGGSLRLSCAASGFTFSTHGMDWFRQAPGKDLEWVSAIQSGGSWTSYASSVKGRFTISRDNAKNTLYLQMSSLRPEDTAVYWCQNRVTRGQGTLVTV
# notes: sheet prints hzCC04, text hzC04; also called hzC04v5.4
# B11: hzCC04v1.2 (VHH)
# VHH: EVQLLESGGGEVQPGGSLRLSCAASGFTFSTHGMDWFRQAPGKDLEWVSAINNGGSWTSYASSVKGRFTISRDNAKNTLYLQMSSLRAEDTAVYYCQNRVTRGQGTLVTV
# notes: sheet prints hzCC04v1.2; also called hzC04v1.2
# B12: hzCC04v5.2 (VHH)
# VHH: EVQLLESGGGEVQPGGSLRLSCAASGFTFSTHGMDWFRQAPGKDLEWVSAIQSGGSWTSYASSVKGRFTISRDNAKNTLYLQMNNLRAEDTAVYWCQNRVTRGQGTLVTV
# notes: sheet prints hzCC04, text hzC04; also called hzC04v5.2
# B13: 2A1 (VHH, not shown: a dimerising Fc or GST; small tags and cut ends)
# VHH: EVQLVQSGGGLVQPGGSLRLSCAASGNIFSIDAMGWYRQAPGRQRELVAQIPGGPTDSVKGRFTVSGNSAKNTGYLQMNTLKPEDTAVYYCNIVASTSWGSPSKVYWGQGTQATVSS
# B14: C06 (VHH, not shown: a dimerising Fc or GST; small tags and cut ends)
# VHH: QVQLQESGGGLVQAGGSLRLSCAASGSVFSIDAMGWYRLAPGQQRELVAVLNGISSAKYADSVKGRFTISGDSAKNAVYLQMDGLKPEDTAVYYCYADVSTGWGRDAHGYWGQGTQVTVSS
# Assays:
# [1] = biological target: T1, human GITR-CHO; assay: flow cytometry on human GITR-CHO cells
# [2] = biological target: T3, cyno GITR-CHO (cynomolgus monkey); assay: flow cytometry on cyno GITR-CHO cells
# T3 construct: expressed on the surface of CHO cells, construct not described; also called cynomolgus GITR expressed on the surface of CHO cells
# [3] = biological target: T2, GITR expressed on CHO cells; assay: flow cytometry competition on GITR-expressing CHO cells; blocked ligand recombinant GITRL; readout GITRL bound, MFI-FL1
# From the text: Briefly, in these studies, a flow cytometry assay using GITR expressing CHO cells and recombinant GITRL was used to implement to assess blocking capacity. The GITR antibody, TRX-518, was used as a control for these studies.
# [4] = biological target: T2, GITR expressed on CHO cells; assay: flow cytometry on GITR-expressing CHO cells, MFI-FL4
# [5] = biological target: T3, cyno GITR-CHO; assay: flow cytometry on cyno GITR-CHO cells; remark: listed apart in the source
# [6] = biological target: T1, human GITR-CHO; assay: flow cytometry on human GITR-CHO cells; remark: listed apart in the source
# [7] = biological target: T1, human GITR-CHO; assay: flow cytometry on human GITR-CHO cells; remark: listed apart in the source
# [8] = biological target: T3, cyno GITR-CHO; assay: flow cytometry on cyno GITR-CHO cells; remark: listed apart in the source
# [9] = biological target: T1, human GITR-CHO; assay: flow cytometry on human GITR-CHO cells; remark: listed apart in the source
binder,measurement,setting,value
B1,EC50 (read off the curve),[1],~4 nM
same,EC50 (read off the curve),[2],~5 nM
B2,EC50 (read off the curve),[1],~4 nM
same,EC50 (read off the curve),[2],~4 nM
B3,EC50 (read off the curve),[1],~4 nM
same,EC50 (read off the curve),[2],~5 nM
B4,IC50 (read off the curve),[3],~4 nM
same,EC50 (read off the curve),[4],~4 nM
B5,EC50 (read off the curve),[5],~2 nM
same,EC50 (read off the curve),[6],~3 nM
B6,EC50 (read off the curve),[7],~5 nM
same,EC50 (read off the curve),[8],~2 nM
B7,binding result,[9],binds
B8,EC50 (read off the curve),[7],~4 nM
same,EC50 (read off the curve),[8],~2 nM
B9,EC50 (read off the curve),[5],~2 nM
same,EC50 (read off the curve),[6],~2 nM
B10,EC50 (read off the curve),[7],~4 nM
same,EC50 (read off the curve),[8],~1 nM
B11,binding result,[9],binds
B12,EC50 (read off the curve),[7],~4 nM
same,EC50 (read off the curve),[8],~1 nM
B13,IC50 (read off the curve),[3],~10 nM
same,EC50 (read off the curve),[4],~10 nM
B14,IC50 (read off the curve),[3],~2 nM
same,EC50 (read off the curve),[4],~3 nM

# Source: US20190100594A1 (INHIBRX, published 2019)
